Target: NLRC4 (mouse) (UniProt Q3UP24)

Row | Substance | IL-1β secretion (ELISA) by LPS-primed BMM one hour after protein transfection [pg/mL]
1 | FliC (purified, histidine-tagged) (from UniProt P06179) (ligand) | 800
2 | PrgJ (purified, histidine-tagged) (from UniProt P41785) (ligand) | 800
